Laboratory results taken from the supplement of paper PMC9170038.

How the values were obtained:
[1] = test system: MS2 coat protein; assay: apparent KD of MS2 coat protein, switch ON state; designed switch direction (-1 OFF switch, 1 ON switch): 1; higher = weaker reporter binding; conditions: FMN input: 0 or 200 uM; Eterna round: R93 (includes R88 designs)
Method in brief: (§1)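 Illumina sequencing clusters were used for on-chip transcription of designed RNA switches. Titration with SNAP-549-labelled MS2 coat protein followed, in twofold steps from 0.7 or 1.5 nM to 3 µM in 100 mM Tris-HCl pH 7.5, 80 mM KCl, 4 mM MgCl2, without or with constant ligand. Apparent KD is each design's median of fits to normalised cluster binding curves.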

[2] = test system: MS2 coat protein; assay: apparent KD of MS2 coat protein, switch OFF state (with FMN for OFF switches, without FMN for ON switches); designed switch direction (-1 OFF switch, 1 ON switch): 1; higher = weaker reporter binding; conditions: FMN input: 0 or 200 uM; Eterna round: R93 (includes R88 designs)
Method in brief: as §1

[3] = test system: MS2 coat protein; assay: apparent KD of MS2 coat protein; designed switch direction (-1 OFF switch, 1 ON switch): 1; higher = weaker reporter binding; conditions: Eterna round: R98
Description: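 RNA-MaP: designed FMN/MS2 RNA switches (84 nt design region) are transcribed on-chip within common flanks and titrated with SNAP-549-labelled MS2 coat protein (about 1-3000 nM) in 100 mM Tris pH 7.5, 80 mM KCl, 4 mM MgCl2, without or with 200 uM FMN. Median apparent KD per design; activation ratio = KD,OFF / KD,ON.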

## GUAGAACAUGAGGAUCACCCAUGUGAGUACAGUGUAGGAUAUGGGCAUGAGAAGUCAUUUCUAGAAGGGCAAAUAA [Raatbiin]
[1]
  apparent KD of MS2 coat protein: 0.207 µM
[2]
  apparent KD of MS2 coat protein: 0.112 µM

## GUAGACAUAGUUCAGGAUAUAUGAAUAGUCACAUGAGGAUCACCCAUGUCCAUUUAUAUGGGCACAUAGAAGGGAGGUAGUUAAC [Mat - Same state - Malcolm Mod - D123]
[1]
  apparent KD of MS2 coat protein: 0.891 µM
[2]
  apparent KD of MS2 coat protein: 1.14 µM

## GUAGCAUACCGAGGAUAUUCUCCGGAAAACCGGACAUGAGGAUCACCCAUGUGGCGAAAGCCUUGGGAGAAGGCGGAAUGCUAC [Xeinanis 75 29]
[3]; input ligand: FMN 200 uM
  apparent KD of MS2 coat protein: 0.0186 µM
[3]; input ligand: none
  apparent KD of MS2 coat protein: 0.0344 µM

## GUAGCUAUCGCAGGAUAUCCUCAGGCGAAAGCCACAUGAGGAUCACCCAUGUAAAUAAAGAAUUUGGAGAAGGGCGAUAGCUAC [jl-sng2-2.34 Eli mod]
[3]; input ligand: FMN 200 uM
  apparent KD of MS2 coat protein: 0.0247 µM
[3]; input ligand: none
  apparent KD of MS2 coat protein: 0.374 µM

## UAAGUACAUGAGGAUCACCCAUGUUGGAAUAGAGCAGGAUAUGUGCAGAGGGAAAUAAAAACAGAAGGGCUAAGAA [Same State #3]
[1]
  apparent KD of MS2 coat protein: 0.0259 µM
[2]
  apparent KD of MS2 coat protein: 0.033 µM

## UAAUAAUAAACCAAGGAUAUGGAGUAUAGAACAUGAGGAUCACCCAUGUGUAGCGUGGAAUAGUACCAGAAGGUGGAGUGAAAUG [JR_SS002_Sub1002]
[1]
  apparent KD of MS2 coat protein: 0.0391 µM
[2]
  apparent KD of MS2 coat protein: 0.0498 µM

## UAGAAGUGGUGAGGAUAUGAAUACGGCUCAUUAUCCUACAUGAGGAUCACCCAUGUGGGUGGUCGUCAGAAGGCACUGCUAUCG [Edretirige]
[3]; input ligand: FMN 200 uM
  apparent KD of MS2 coat protein: 0.181 µM
[3]; input ligand: none
  apparent KD of MS2 coat protein: 0.0323 µM

## UAGAUCACCGAAGGAUAUGGGCAGAGUCCCGCUACAUGAGGAUCACCCAUGUCAGUCGGUCGUUUUCAGAAGGUCGGAAUGAUU [Zadi]
[3]; input ligand: FMN 200 uM
  apparent KD of MS2 coat protein: 0.0571 µM
[3]; input ligand: none
  apparent KD of MS2 coat protein: 0.0194 µM

## UAGGGAACAGGGUAGGAUAUGCAUGGUCGUACAUGAGGAUCACCCAUGUAGCCUAGAAAAUAAAUGCAGAAGGGCCAAAAGAAAA [Raritea]
[1]
  apparent KD of MS2 coat protein: 0.0398 µM
[2]
  apparent KD of MS2 coat protein: 0.0671 µM

## UAUUAUUACACGAAGGAUAUCGAUAAUAGUACAUGAGGAUCACCCAUGUUCAAAUCAUUUUAGUACGAGAAGGUCGAGGGUAAAG [JR_SS002_Sub710]
[1]
  apparent KD of MS2 coat protein: 0.0194 µM
[2]
  apparent KD of MS2 coat protein: 0.0234 µM

## UCACUCAAGUUAGGAUAUGGAUCGGAAAACGAUCCAGAAGGAACAUGAAAACAUGAGCAUCAGCCAUGUUCCAGAAACGAGUGA [SameSame 4 - Jieux - Same State NG 1]
[3]; input ligand: FMN 200 uM
  apparent KD of MS2 coat protein: 0.0236 µM

## UCUGCUAUCGCAGGAUAUUACAUGGGAAAGAAUACAUGAGGAUCACCCAUGUAAAAGAUCAUAAAUAAGAAGGGCGAUAGCAGA [Lame State 7 - Jieux - Same State NG 2]
[3]; input ligand: FMN 200 uM
  apparent KD of MS2 coat protein: 0.116 µM
[3]; input ligand: none
  apparent KD of MS2 coat protein: 1.53 µM

## UGCAGGAAGAGAGAGGAUAUCCAAAGGAAAACAUGAGGAUCACCCAUGUAAAAGGUAGGAAAUUGGGAGAAGGCUCAAGAGAGAG [salish99-ss2-098]
[1]
  apparent KD of MS2 coat protein: 0.0331 µM
[2]
  apparent KD of MS2 coat protein: 0.0283 µM

## UGCCAAUUGGCACAGGAUAUGAGCAUGCUCACAUGAGGAUCACCCAUGUGAUUACCAACGCAAUAUCAGAAGGGUGCCCUCGUCA [Relageor]
[1]
  apparent KD of MS2 coat protein: 0.0321 µM
[2]
  apparent KD of MS2 coat protein: 0.0504 µM

## UGGAGACAUGAGGAUCACCCAUGUGAGAAGAGGCGAGGAUAUCGAAAAAAAAAAAAAAAACGAGAAGGCGCGAGAU [salish99-SS1-008]
[1]
  apparent KD of MS2 coat protein: 0.0259 µM
[2]
  apparent KD of MS2 coat protein: 0.0221 µM

## UGGAGACAUGAGGAUCACCCAUGUGAGAAGAGGCGAGGAUAUCGAAAGAAAGAAGAGAAACGAGAAGGCGCGAGCC [salish99-SS1-048]
[1]
  apparent KD of MS2 coat protein: 0.0362 µM
[2]
  apparent KD of MS2 coat protein: 0.0499 µM

## UGGAGACAUGAGGAUCACCCAUGUGAGAAGAGGCGAGGAUAUCGAAAGAAAGAAGAGAAACGAGAAGGCGCGAGGC [salish99-SS1-047]
[1]
  apparent KD of MS2 coat protein: 0.0433 µM
[2]
  apparent KD of MS2 coat protein: 0.0276 µM

## UGGAGACAUGAGGAUCACCCAUGUGAGAAGAGGCGAGGAUAUCGAAAGAAAGAAGAGAAACGAGAAGGCGCGAGUU [salish99-SS1-035]
[1]
  apparent KD of MS2 coat protein: 0.0272 µM
[2]
  apparent KD of MS2 coat protein: 0.0416 µM

## UUACAGUGCGGGUAGGAUAUGUAGGGUGGUACAUGAGGAUCACCCAUGUAUCCACCCUUCGACCGGCAGAAGGGCCUGUCACUAC [Atarzale]
[1]
  apparent KD of MS2 coat protein: 0.012 µM
[2]
  apparent KD of MS2 coat protein: 0.0128 µM

## UUACGUCCCGUUUACAUGAGGAUCACCCAUGUCGAAAGACAUGAGGAUAUGCUACCUAGUUGGUAGCAGAAGGCGUGGACGUCG [salish99_SSNG3_r02_005]
[3]; input ligand: FMN 200 uM
  apparent KD of MS2 coat protein: 0.0871 µM
[3]; input ligand: none
  apparent KD of MS2 coat protein: 0.121 µM
